Target: T1, amyloid β-derived diffusible ligands (ADDLs), oligomers of Aβ1-42
T1 construct: number of chains not fixed; also called Aβ oligomers; Aβ1-42 oligomers
Assay: sandwich ELISA, 6E10 as capture and as detection antibody, Aβ oligomers titrated (log RFU axis)

B1: 6E10 (antibody, V domains shown)
VH: EVQLQQSGAELVKPGASVKLCTASGFNIKDTYIHWVKQRPEQGLEWIGRFDPVNVNTRYDSRFRGKATITSDASSNTAYLHLNSLTSEDTAVYYCSRSYYNGRRRFTYWGQGTLVTVSA
VL: DIVMTQSPSSLTVTAGEKVALTCKASQSLLSSGNQKNYLTWYQQKPGQPPKLLIYWASIRESGVPDRFTGSGSGTFFTLTISSVQAEDLAVYYCQNDYNYPFTFGSGTKLEIK
EC50 (read off the curve): ~5 nM
